PMC12416549 (2024)
Changes are numbered by the printed parent chain. Names may count otherwise.

B1: Y70D (designed binder)
chain: SMEEEVEKAAKEYEKKKKEAIEKHLEKLKAKDKEAAERFLKELEEAAKEYAKDEAKTMSEEEAKRRAKKDKEKVLLSELSEEEQKEIKEAEEKLVRTILKYVEEAAK
B2: E61Q (designed binder)
chain: B1 chain with E61Q, D70Y
B3: R66M (designed binder)
chain: B1 chain with R66M, D70Y
B4: E91A (designed binder)
chain: B1 chain with D70Y, E91A
B5: R38Q (designed binder)
chain: B1 chain with R38Q, D70Y
B6: K8S (designed binder)
chain: B1 chain with K8S, D70Y
B7: E34G (designed binder)
chain: B1 chain with E34G, D70Y
B8: Y101P (designed binder)
chain: B1 chain with D70Y, Y101P
B9: K31C (designed binder)
chain: B1 chain with K31C, D70Y
B10: L94I (designed binder)
chain: B1 chain with D70Y, L94I
B11: K31L (designed binder)
chain: B1 chain with K31L, D70Y
B12: K56G (designed binder)
chain: B1 chain with K56G, D70Y
B13: H24M (designed binder)
chain: B1 chain with H24M, D70Y
B14: A63G (designed binder)
chain: B1 chain with A63G, D70Y
B15: D53S (designed binder)
chain: B1 chain with D53S, D70Y
B16: K41E (designed binder)
chain: B1 chain with K41E, D70Y
B17: Y70G (designed binder)
chain: B1 chain with D70G
B18: I98G (designed binder)
chain: B1 chain with D70Y, I98G
B19: K107M (designed binder)
chain: B1 chain with D70Y, K107M
B20: E49M (designed binder)
chain: B1 chain with E49M, D70Y
B21: K73E (designed binder)
chain: B1 chain with D70Y, K73E
B22: K8I (designed binder)
chain: B1 chain with K8I, D70Y
B23: A63R (designed binder)
chain: B1 chain with A63R, D70Y
B24: E45D (designed binder)
chain: B1 chain with E45D, D70Y
B25: K33M (designed binder)
chain: B1 chain with K33M, D70Y
B26: K73G (designed binder)
chain: B1 chain with D70Y, K73G
B27: L25A (designed binder)
chain: B1 chain with L25A, D70Y
B28: E81F (designed binder)
chain: B1 chain with D70Y, E81F
B29: E83N (designed binder)
chain: B1 chain with D70Y, E83N
B30: Y13H (designed binder)
chain: B1 chain with Y13H, D70Y
B31: V6S (designed binder)
chain: B1 chain with V6S, D70Y
B32: K8V (designed binder)
chain: B1 chain with K8V, D70Y
B33: A30F (designed binder)
chain: B1 chain with A30F, D70Y
B34: I98C (designed binder)
chain: B1 chain with D70Y, I98C
B35: E82P (designed binder)
chain: B1 chain with D70Y, E82P
B36: A51C (designed binder)
chain: B1 chain with A51C, D70Y
B37: V74K (designed binder)
chain: B1 chain with D70Y, V74K
B38: E22K (designed binder)
chain: B1 chain with E22K, D70Y
B39: K16V (designed binder)
chain: B1 chain with K16V, D70Y
B40: K15T (designed binder)
chain: B1 chain with K15T, D70Y
B41: H24F (designed binder)
chain: B1 chain with H24F, D70Y
B42: A90Y (designed binder)
chain: B1 chain with D70Y, A90Y
B43: E91P (designed binder)
chain: B1 chain with D70Y, E91P
B44: E104S (designed binder)
chain: B1 chain with D70Y, E104S
B45: K93R (designed binder)
chain: B1 chain with D70Y, K93R
B46: R96C (designed binder)
chain: B1 chain with D70Y, R96C
B47: F39H (designed binder)
chain: B1 chain with F39H, D70Y
B48: K15L (designed binder)
chain: B1 chain with K15L, D70Y
B49: E82R (designed binder)
chain: B1 chain with D70Y, E82R
B50: E19T (designed binder)
chain: B1 chain with E19T, D70Y
B51: R96D (designed binder)
chain: B1 chain with D70Y, R96D
B52: A51E (designed binder)
chain: B1 chain with A51E, D70Y
B53: V6K (designed binder)
chain: B1 chain with V6K, D70Y
B54: K56Y (designed binder)
chain: B1 chain with K56Y, D70Y
B55: E45R (designed binder)
chain: B1 chain with E45R, D70Y
B56: E7L (designed binder)
chain: B1 chain with E7L, D70Y
B57: S77Q (designed binder)
chain: B1 chain with D70Y, S77Q
B58: Y50F (designed binder)
chain: B1 chain with Y50F, D70Y
B59: E45C (designed binder)
chain: B1 chain with E45C, D70Y

Biological target: T1, TNFR1 (Homo sapiens, UniProt P19438)
T1 chain: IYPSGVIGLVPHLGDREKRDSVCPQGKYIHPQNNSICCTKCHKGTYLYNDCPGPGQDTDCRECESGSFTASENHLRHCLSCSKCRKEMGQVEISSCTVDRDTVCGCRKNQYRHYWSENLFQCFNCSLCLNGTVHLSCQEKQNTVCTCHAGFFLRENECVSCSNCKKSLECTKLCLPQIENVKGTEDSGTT
Experiment: yeast display SC50

Binder	apparent Kd (screen)
B1	5.84 nM
B2	1.4 nM
B3	26.9 nM
B4	7.07 nM
B5	1.86 nM
B6	1.4 nM
B7	0.405 nM
B8	0.405 nM
B9	1.27 nM
B10	0.405 nM
B11	0.49 nM
B12	7.07 nM
B13	0.49 nM
B14	11.4 nM
B15	0.446 nM
B16	0.49 nM
B17	3.99 nM
B18	6.43 nM
B19	1.4 nM
B20	12.5 nM

Binder	apparent Kd (screen)
B21	11.4 nM
B22	1.05 nM
B23	6.43 nM
B24	0.539 nM
B25	0.593 nM
B26	22.2 nM
B27	0.593 nM
B28	0.593 nM
B29	0.79 nM
B30	0.446 nM
B31	1.4 nM
B32	1.16 nM
B33	0.869 nM
B34	6.43 nM
B35	1.16 nM
B36	0.446 nM
B37	6.43 nM
B38	1.05 nM
B39	1.05 nM
B40	0.653 nM

Binder	apparent Kd (screen)
B41	0.956 nM
B42	0.49 nM
B43	1.54 nM
B44	0.718 nM
B45	0.593 nM
B46	2.48 nM
B47	4.39 nM
B48	0.49 nM
B49	0.405 nM
B50	0.49 nM
B51	10.4 nM
B52	0.49 nM
B53	1.54 nM
B54	3.99 nM
B55	6.43 nM
B56	11.4 nM
B57	1.27 nM
B58	13.8 nM
B59	1.27 nM
